Molecular target: p53 (human, wild type) (human (endogenous in HCT 116, MCF7, U2OS)), P04637
Assay: co-IP; HCT 116 colon cancer cells, untreated or treated with RITA; co-immunoprecipitation of p53/MDM2 or p53/MDM4 as described previously (Issaeva et al., 2004)
Details: remark: other sources report otherwise

Sequence of p53 (human, wild type) (human (endogenous in HCT 116, MCF7, U2OS)), P04637 (P04637 whole entry): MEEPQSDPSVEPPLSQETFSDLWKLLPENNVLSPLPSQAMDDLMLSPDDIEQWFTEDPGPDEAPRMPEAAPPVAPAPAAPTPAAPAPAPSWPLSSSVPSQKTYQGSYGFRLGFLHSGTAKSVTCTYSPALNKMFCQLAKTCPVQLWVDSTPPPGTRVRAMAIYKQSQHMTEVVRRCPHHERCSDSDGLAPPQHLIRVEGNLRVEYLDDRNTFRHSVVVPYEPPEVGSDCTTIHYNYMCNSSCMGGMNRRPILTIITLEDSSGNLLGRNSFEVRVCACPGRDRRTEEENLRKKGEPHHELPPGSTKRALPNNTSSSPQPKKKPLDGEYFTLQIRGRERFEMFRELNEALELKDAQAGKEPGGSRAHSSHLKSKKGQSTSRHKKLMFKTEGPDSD

percent reduction of the amount of MDMX bound to p53 by RITA: 43%
B1: MDM4 (MDMX), human, O15151 1-490 (natural protein)
chain: MTSFSTSAQCSTSDSACRISPGQINQVRPKLPLLKILHAAGAQGEMFTVKEVMHYLGQYIMVKQLYDQQEQHMVYCGGDLLGELLGRQSFSVKDPSPLYDMLRKNLVTLATATTDAAQTLALAQDHSMDIPSQDQLKQSAEESSTSRKRTTEDDIPTLPTSEHKCIHSREDEDLIENLAQDETSRLDLGFEEWDVAGLPWWFLGNLRSNYTPRSNGSTDLQTNQDVGTAIVSDTTDDLWFLNESVSEQLGVGIKVEAADTEQTSEEVGKVSDKKVIEVGKNDDLEDSKSLSDDTDVEVTSEDEWQCTECKKFNSPSKRYCFRCWALRKDWYSDCSKLTHSLSTSDITAIPEKENEGNDVPDCRRTISAPVVRPKDAYIKKENSKLFDPCNSVEFLDLAHSSESQETISSMGEQLDNLSEQRTDTENMEDCQNLLKPCSLCEKRPRDGNIIHGRTGHLVTCFHCARRLKKAGASCPICKKEIQLVIKVFIA

From PMC9198586
